Reference: PMC9700832 (2022)

B1: B. thuringiensis serovar israelensis LexA (natural protein)
chain: MEKLTKRQQDILDFIKLKVQEKGYPPSVREIGQAVGLASSSTVHGHLSRLEEKGYIRRDPTKPRAIEILGEDRMDTETQSVIQVPIVGKVTAGLPITAVESVEEHFPLPASIVAGADQVFMLRISGDSMIEAGIFDGDLVVVRQQQSAYNGEIVVALTEDNEATVKRFYKEKDHFRLQPENSSLEPIILKQVSVIGKVIGVYRDLH

Assays:
Assay in all cases: SPR
[1] = target: B1
[2] = target: tectiviral gp7 homolog from B. cereus AND1284 phage Sato (phage Sato (B. cereus AND1284))
[3] = target: tectiviral gp7 homolog from B. anthracis phage AP50 (phage AP50 (B. anthracis))
[4] = target: tectiviral gp7 homolog from the phage found in B. cereus VD184 (tectiviral phage found in B. cereus …)
[5] = target: tectiviral gp7 homolog from the phage found in B. thuringiensis serovar aizawai (tectiviral phage found in B. …)

| Binder | Kd [1] | Kd [2] | Kd [3] | Kd [4] | Kd [5] |
| --- | --- | --- | --- | --- | --- |
| MRDKLLDFIIELSQSSKQVVAKDYVIDRLMQVTKEDYKEMEKKTEGKKN (natural protein) [tectiviral gp7 homolog from B. mycoides VDm034 phage Lima] | 185 nM | – | – | – | – |
| MRDKLLDFIIELSQSSKQVVSKSYVIDRLMQVTKEDYKELEKNVEGKKDD (natural protein) [gp7 protein of GIL01 phage] | 169 nM | – | – | – | – |
| B1 | – | 190 nM | 167 nM | 148 nM | 150 nM |
